Experimental data taken from patent publication US20230381333A1 (HANMI PHARM, published 2023).
Bridge positions count the residues as written; N and C are the ends. Square brackets hold non-standard residues; d marks the D form. Ends that are not written are not given here. * marks the point of attachment. Acetyl(2-(4-imidazolyl)) = O=C(Cc1c[nH]cn1)*; Aib = CC(C)(N)C(=O)O

How the values were obtained:
Test in all cases: cell-based or functional assay
human GIP receptor = biological target: T1, human GIP receptor (human, UniProt P48546 22-466)
T1 sequence (looked up): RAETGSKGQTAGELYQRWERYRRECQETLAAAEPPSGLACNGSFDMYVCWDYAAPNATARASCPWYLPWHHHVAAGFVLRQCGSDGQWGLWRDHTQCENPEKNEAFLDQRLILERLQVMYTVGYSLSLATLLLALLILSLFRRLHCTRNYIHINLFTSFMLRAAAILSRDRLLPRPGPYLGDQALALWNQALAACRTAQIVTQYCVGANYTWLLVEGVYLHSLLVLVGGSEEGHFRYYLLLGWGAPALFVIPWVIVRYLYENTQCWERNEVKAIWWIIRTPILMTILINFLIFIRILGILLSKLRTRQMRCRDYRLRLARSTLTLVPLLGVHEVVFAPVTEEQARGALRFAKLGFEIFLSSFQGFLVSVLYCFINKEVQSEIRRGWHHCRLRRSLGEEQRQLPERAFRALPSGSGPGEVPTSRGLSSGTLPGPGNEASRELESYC

human GCG receptor = human GCG receptor (human, UniProt P47871 26-477)
human GLP-1 receptor = human GLP-1 receptor (human, UniProt P43220 24-463)

Chain of human GCG receptor (P47871 26-477): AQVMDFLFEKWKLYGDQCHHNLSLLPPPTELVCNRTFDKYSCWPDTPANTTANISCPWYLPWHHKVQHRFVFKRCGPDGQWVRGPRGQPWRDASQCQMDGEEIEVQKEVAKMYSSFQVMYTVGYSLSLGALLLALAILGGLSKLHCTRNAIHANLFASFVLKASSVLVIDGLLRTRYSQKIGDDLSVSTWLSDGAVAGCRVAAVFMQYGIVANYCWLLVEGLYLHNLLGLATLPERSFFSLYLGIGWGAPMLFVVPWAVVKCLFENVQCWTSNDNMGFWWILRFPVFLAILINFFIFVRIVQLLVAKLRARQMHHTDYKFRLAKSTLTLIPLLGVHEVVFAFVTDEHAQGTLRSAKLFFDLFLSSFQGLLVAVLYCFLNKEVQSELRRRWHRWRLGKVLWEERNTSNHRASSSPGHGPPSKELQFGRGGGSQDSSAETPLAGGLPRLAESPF

Row | Binder | In vitro activity compared to native-type peptide (%), vs GIP (human GIP receptor) [%] | In vitro activity compared to native-type peptide (%), vs Glucagon (human GCG receptor) [%] | In vitro activity compared to native-type peptide (%), vs GLP-1 (human GLP-1 receptor) [%]
1 | H[Aib]QGTFTSDYSKYLDEKRQKEFVQWLLNTC (bridge 16-20) [triple agonist of SEQ ID NO: 51] | 0.1 | 2 | 14.4
2 | H[Aib]QGTFTSDYSKYLDEKRQKEFVQWLLNTKC (bridge 16-20) [triple agonist of SEQ ID NO: 58] | 0.2 | 2.6 | 39.1
3 | H[Aib]QGTFTSDYSKYLDECRQKEFVQWLLNGGPSSGAPPPSG (bridge 16-20) [triple agonist of SEQ ID NO: 37] | 2.2 | 6.21 | 236
4 | H[Aib]QGTFTSDVSSYLDGQAAKEFIAWLVKGC [triple agonist of SEQ ID NO: 1] | < 0.1 | < 0.1 | 3.2
5 | [Acetyl(2-(4-imidazolyl))][Aib]QGTFTSDKSSYLDERAAQDFVQWLLDGGPSSGAPPPSS [triple agonist of SEQ ID NO: 38] |  |  | 2.3
6 | H[Aib]QGTFTSDVSSYLDGQAAKEFVAWLLKGC [triple agonist of SEQ ID NO: 6] | < 0.1 | < 0.1 | 17
7 | H[Aib]QGTFTSDYSKYLDGQHAQCFVAWLLAGGGPSSGAPPPS [triple agonist of SEQ ID NO: 39] | < 0.1 | 0.53 | 13.9
8 | {Acetyl(2-(4-imidazolyl))}-[Aib]QGTFTSDYSICMDEKHQKDFVNWLLNTK (bridge 15-19) [triple agonist of SEQ ID NO: 59] | 4 | < 0.1 | 40.3
9 | H[Aib]QGTFTSDYSKYLDEKRAKEFVQWLLDHHPSSGQPPPSC (bridge 16-20) [triple agonist of SEQ ID NO: 50] | 2.7 | 50.5 | 67.4
10 | H[Aib]EGTFTSDYSIAMDEIHQKDFVDWLLAEC (bridge 16-20) [triple agonist of SEQ ID NO: 54] | 0.1 | 1.4 | 30.6
11 | Y[Aib]QGTFTSDYSKYLDEKRAKEFVQWLLDHHCSSGQPPPS (bridge 16-20) [triple agonist of SEQ ID NO: 43] | 3.7 | 88.4 | 12.6
12 | H[Aib]EGTFTSDYSIAMDEIHQKDFVNWLLAQC (bridge 16-20) [triple agonist of SEQ ID NO: 53] | 1.3 | 8.4 | 161
13 | H[Aib]QGTFTSDKSKYLDECAAQDFVQWLLDGGPSSGAPPPS [triple agonist of SEQ ID NO: 41] | < 0.1 | < 0.1 | 34.3
14 | H[Aib]QGTFTSDYSKYLDEKRQKEFVNWLLAQC (also: ring formation (underlined residues), positions not given here) [triple agonist of SEQ ID NO: 56] | 0.8 | 4.9 | 57.9
15 | H[Aib]QGTFTSDYSKYLCEKRQKEFVQWLLNGGPSSGAPPPSG (bridge 16-20) [triple agonist of SEQ ID NO: 36] | 0.2 | 0.39 | 37.4
16 | H[Aib]QGTFTSDKSKYLDERACQDFVQWLLDGGPSSGAPPPS [triple agonist of SEQ ID NO: 40] | < 0.1 | < 0.1 | 75.2
17 | H[Aib]QGTFTSDYSIAMDEIHQKDFVNWLLNTC (bridge 16-20) [triple agonist of SEQ ID NO: 57] | 0.3 | < 0.1 | 11.7
18 | Y[Aib]QGTFTSDYSKYLDEKRAKEFVQWLLDHHPSSGQPPPSC (bridge 16-20) [triple agonist of SEQ ID NO: 42] | 7.8 | 206 | 33.9
19 | H[Aib]QGTFTSDVSSYLLGQQQKEFIAWLVKGGGPSSGAPPPSC [triple agonist of SEQ ID NO: 5] | < 0.1 | < 0.1 | 42.1
20 | H[Aib]QGTFTSDYSKYLDEKRQKEFVNWLLAQKC (bridge 16-20) [triple agonist of SEQ ID NO: 34] | 0.6 | 0.92 | 19.1
21 | H[Aib]QGTFTSDYSIAMDEIHQKDFVNWLLAQC (bridge 16-20) [triple agonist of SEQ ID NO: 55] | 2.4 | 0.7 | 27.1
22 | H[Aib]QGTFTSDYSIAMDEIHQKDFVNWLLNTKC (bridge 16-20) [triple agonist of SEQ ID NO: 35] | 1.3 | < 0.1 | 7.5
23 | H[Aib]QGTFTSDVSSYLLGQQQKEFIAWLVKGC [triple agonist of SEQ ID NO: 4] | < 0.1 | < 0.1 | 8.5
24 | [Acetyl(2-(4-imidazolyl))][Aib]QGTFTSDYSICMDEIHQKDFVNWLLNTK (bridge 16-20) [triple agonist of SEQ ID NO: 49] | 3.3 | < 0.1 | 29.8
25 | HGQGTFTSDCSKQLDGQAAQEFVAWLLAGGPSSGAPPPS [triple agonist of SEQ ID NO: 44] | < 0.1 | < 0.1 | 1.3
26 | HGQGTFTSDCSKYLDEQHAQEFVAWLLAGGPSSGAPPPS [triple agonist of SEQ ID NO: 46] | < 0.1 | < 0.1 | 1.4
27 | HGQGTFTSDCSKYLDGQRAQEFVAWLLAGGPSSGAPPPS [triple agonist of SEQ ID NO: 47] | < 0.1 | < 0.1 | 2.4
28 | HGQGTFTSDCSKYLDGQRAQDFVNWLLAGGPSSGAPPPS [triple agonist of SEQ ID NO: 48] | < 0.1 | < 0.1 | 1.5
29 | HGQGTFTSDCSKYMDGQAAQDFVAWLLAGGPSSGAPPPS [triple agonist of SEQ ID NO: 45] | < 0.1 | < 0.1 | 6.6
30 | H[Aib]QGTFTSDYSKYLDEKRQKEFVQWLLDTC (bridge 16-20) [triple agonist of SEQ ID NO: 52] | 0.3 | 7.5 | 44.1
